As usually defined, the EC50 is the concentration at which the effect is half-maximal.

This note sets out measurements from patent US20210221878A1.

Assay [1] has as its target αSyn WT PFF (preformed fibrils of recombinant wild-type human α-synuclein) (human) (UniProt P37840). Nature of the assay: ratio of monomer to PFF binding potency, solution competition ELISA. In general terms: ELISA stands for enzyme-linked immunosorbent assay.
Assay [2] concerns the target full-length human recombinant wild-type α-synuclein monomer (human) (UniProt P37840). Nature of the assay: solution competition ELISA, free antibody captured on PFF plate; binding potency, monomer (ng/ml).
The target of assay [3] is αSyn WT PFF (preformed fibrils of recombinant wild-type human α-synuclein) (human) (UniProt P37840). Nature of the assay: solution competition ELISA, free antibody captured on PFF plate; binding potency, PFF (ng/ml).

LB509 (antibody): in assay [1], the Mono/PFF Ratio was 38. Besides, the half-maximal effective concentration (EC50) in assay [2] came to 0.062 µg/mL; in assay [3], 0.0016 µg/mL.

For MJFR1 (antibody), the Mono/PFF Ratio in assay [1] was 0.27. Moreover, the EC50 in assay [2] amounted to 0.008 µg/mL; in assay [3], 0.0292 µg/mL.

On to MJFR14642 (antibody), for which the Mono/PFF Ratio in assay [1] came out at 7230. Further, the EC50 in assay [2] amounted to 3.66 µg/mL; in assay [3] it was 0.00051 µg/mL.

Turning to Syn303 (antibody), in assay [1], the Mono/PFF Ratio turned out to be 0.47. Moreover, the results for the EC50 in assay [2] and in assay [3] were 0.0512 µg/mL and 0.109 µg/mL, respectively.
